This experiment has as its target recombinant nucleoprotein (NP) protein derived from influenza virus H1N1 to which a Flag tag was fus (influenza virus H1N1).

recombinant nucleoprotein (NP) protein derived from influenza virus H1N1 to which a Flag tag was fus (influenza virus H1N1), sequence (P03466 whole entry): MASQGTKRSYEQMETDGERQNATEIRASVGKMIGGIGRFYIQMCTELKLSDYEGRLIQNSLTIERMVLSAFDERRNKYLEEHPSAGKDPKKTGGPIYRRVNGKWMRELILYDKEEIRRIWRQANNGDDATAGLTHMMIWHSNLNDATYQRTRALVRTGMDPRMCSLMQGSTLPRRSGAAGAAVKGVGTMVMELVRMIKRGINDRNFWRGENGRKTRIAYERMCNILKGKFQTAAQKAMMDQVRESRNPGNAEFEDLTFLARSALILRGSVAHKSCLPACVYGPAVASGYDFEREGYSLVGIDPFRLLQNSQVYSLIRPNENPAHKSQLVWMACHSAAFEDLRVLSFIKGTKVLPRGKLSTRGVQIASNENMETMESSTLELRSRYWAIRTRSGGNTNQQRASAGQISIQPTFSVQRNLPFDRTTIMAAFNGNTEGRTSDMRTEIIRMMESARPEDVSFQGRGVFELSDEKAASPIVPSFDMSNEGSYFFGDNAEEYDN

B1: VHH antibody consisting of the amino acid sequence represented by SEQ ID NO: 08 (VHH)
VHH: QVQLVESGGGLVQAGGSLRLSCAASRTIFNPNVMGWYRQAPGKQRELVADISLSGSTNYADSVKGRFTISRDNAKNTMYLQMNSLKPEDTAVYYCNTNAISGAPGRYWGQGTQVTVSS
For B1, the Kd (usually the constant that tells how readily two partners part at equilibrium) came to 0.236 nM.
